1 molecule from patent publication US6794147 (Pfizer, dated 2004) can be followed below.

The target in this test is T1, mouse MLH1 (endogenous, mouse testicular lysates) (mouse, UniProt Q9JK91 1-760).
T1 construct: Endogenous protein immunoprecipitated from mouse testicular lysates
T1 sequence (looked up): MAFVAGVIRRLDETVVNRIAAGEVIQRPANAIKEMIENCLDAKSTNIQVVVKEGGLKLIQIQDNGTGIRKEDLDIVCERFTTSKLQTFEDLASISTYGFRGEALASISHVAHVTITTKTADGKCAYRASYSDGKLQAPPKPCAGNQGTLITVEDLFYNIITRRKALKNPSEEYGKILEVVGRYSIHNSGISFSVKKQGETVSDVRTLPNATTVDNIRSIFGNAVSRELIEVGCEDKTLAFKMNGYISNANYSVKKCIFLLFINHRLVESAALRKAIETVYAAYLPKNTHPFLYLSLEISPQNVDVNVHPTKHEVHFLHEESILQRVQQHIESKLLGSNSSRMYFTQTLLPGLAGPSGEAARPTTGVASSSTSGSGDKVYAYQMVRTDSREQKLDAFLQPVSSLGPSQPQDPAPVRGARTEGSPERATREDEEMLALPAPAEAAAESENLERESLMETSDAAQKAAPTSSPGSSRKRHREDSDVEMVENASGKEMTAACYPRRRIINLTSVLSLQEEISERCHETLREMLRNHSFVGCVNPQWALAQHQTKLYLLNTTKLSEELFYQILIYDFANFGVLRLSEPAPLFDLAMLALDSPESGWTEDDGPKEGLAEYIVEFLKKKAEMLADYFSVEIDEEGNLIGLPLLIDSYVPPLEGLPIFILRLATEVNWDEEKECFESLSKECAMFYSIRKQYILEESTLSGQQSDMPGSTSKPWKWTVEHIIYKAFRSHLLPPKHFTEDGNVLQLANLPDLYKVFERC
The test is described as follows: co-immunoprecipitation from mouse testicular lysates with anti-RAD51 antibody, Western blotting. In general terms: A western blot detects proteins with antibodies after separation by electrophoresis.

B1: mouse RAD51 (endogenous, mouse testicular lysates) (other, UniProt Q08297 2-339, looked up)
chain: AMQMQLEASADTSVEEESFGPQPISRLEQCGINANDVKKLEEAGYHTVEAVAYAPKKELINIKGISEAKADKILTEAAKLVPMGFTTATEFHQRRSEIIQITTGSKELDKLLQGGIETGSITEMFGEFRTGKTQICHTLAVTCQLPIDRGGGEGKAMYIDTEGTFRPERLLAVAERYGLSGSDVLDNVAYARGFNTDHQTQLLYQASAMMVESRYALLIVDSATALYRTDYSGRGELSARQMHLARFLRMLLRLADEFGVAVVITNQVVAQVDGAAMFAADPKKPIGGNIIAHASTTRLYLRKGRGETRICKIYDSPCLPEAEAMFAINADGVGDAKD
notes: Endogenous protein immunoprecipitated from mouse testicular lysates
B1: the binding result was “no binding”.
